Here are results for 1 molecule from paper PMC10716376, “The assembly of the Mitochondrial Complex I Assembly complex uncovers a redox pathway coordination” (Nature Communications, 2023).

What all share (conditions): both partners purified
For one assay, the target named is T1, ACAD9_(S191A) (human, UniProt Q9H845 38-621, S191A).
T1 construct: human ACAD9, residues 38-621, S191A; One FAD per protomer in the cryo-EM structure; source: E. coli C43 (DE3), purified (HisTrap, dialysed in SEC buffer)
T1 sequence (looked up): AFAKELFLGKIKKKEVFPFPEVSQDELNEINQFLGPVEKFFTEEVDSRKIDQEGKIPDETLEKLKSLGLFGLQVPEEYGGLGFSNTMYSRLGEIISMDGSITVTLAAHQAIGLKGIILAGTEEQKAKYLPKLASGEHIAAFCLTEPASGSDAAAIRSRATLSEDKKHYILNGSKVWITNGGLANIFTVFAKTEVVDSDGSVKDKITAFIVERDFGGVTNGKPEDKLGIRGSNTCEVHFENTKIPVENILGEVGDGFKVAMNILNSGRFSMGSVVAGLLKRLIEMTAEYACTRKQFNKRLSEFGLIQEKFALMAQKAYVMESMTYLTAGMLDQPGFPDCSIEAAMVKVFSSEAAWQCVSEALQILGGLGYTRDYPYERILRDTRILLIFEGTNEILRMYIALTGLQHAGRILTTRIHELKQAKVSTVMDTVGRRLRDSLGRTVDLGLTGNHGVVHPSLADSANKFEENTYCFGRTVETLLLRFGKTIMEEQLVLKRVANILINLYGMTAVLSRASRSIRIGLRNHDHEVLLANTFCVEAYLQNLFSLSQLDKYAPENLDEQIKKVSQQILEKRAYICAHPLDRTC
The experiment in a line: ITC; 25 °C; ACAD9 at 49 uM in the cell, titrated with ECSIT at 300 uM; 50 mM Tris-HCl pH 7.5, 250 mM NaCl. A general note: ITC needs no label: the signal is the heat of the interaction.

The target of a further assay is T2, ACAD9_(A184S/SR194TS) (human, UniProt Q9H845 38-621, A184S | SR194TS).
T2 construct: human ACAD9, residues 38-621, A184S and SR194TS combined (mimics the VLCAD gatekeeper loop); source: E. coli C43 (DE3), purified (HisTrap, dialysed in SEC buffer)
T2 sequence (looked up): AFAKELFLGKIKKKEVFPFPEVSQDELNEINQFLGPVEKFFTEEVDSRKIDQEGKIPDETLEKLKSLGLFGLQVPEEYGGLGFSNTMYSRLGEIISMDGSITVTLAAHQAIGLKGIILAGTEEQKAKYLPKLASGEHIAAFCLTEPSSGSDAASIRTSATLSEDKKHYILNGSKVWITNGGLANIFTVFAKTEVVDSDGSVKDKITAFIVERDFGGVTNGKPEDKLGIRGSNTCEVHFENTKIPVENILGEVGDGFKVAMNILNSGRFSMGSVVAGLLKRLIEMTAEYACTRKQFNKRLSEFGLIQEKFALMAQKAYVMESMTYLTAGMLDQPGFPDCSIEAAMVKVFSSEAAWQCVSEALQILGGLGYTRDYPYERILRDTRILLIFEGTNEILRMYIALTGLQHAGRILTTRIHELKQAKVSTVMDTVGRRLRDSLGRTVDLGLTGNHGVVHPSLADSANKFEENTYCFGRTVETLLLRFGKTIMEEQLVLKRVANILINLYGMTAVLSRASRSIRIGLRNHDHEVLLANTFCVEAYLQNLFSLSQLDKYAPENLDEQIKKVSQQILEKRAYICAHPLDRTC
As to the kind of experiment: mass photometry; ACAD9 (or VLCAD) at 20-50 nM in 25 mM HEPES pH 7.5, 250 mM NaCl, or diluted in 4.8 uM ECSIT solution for complex formation.

Assay [1] has as its target T3, ACAD9WT (mature ACAD9, residues 38-621) (human, UniProt Q9H845 38-621).
T3 construct: human ACAD9, mature form, residues 38-621; E. coli codon-optimised synthetic gene; Cloned into pET-21d(+); Plasmid details are in Supplementary Data 1; source: E. coli C43 (DE3), purified (HisTrap, dialysed in SEC buffer)
T3 sequence (looked up): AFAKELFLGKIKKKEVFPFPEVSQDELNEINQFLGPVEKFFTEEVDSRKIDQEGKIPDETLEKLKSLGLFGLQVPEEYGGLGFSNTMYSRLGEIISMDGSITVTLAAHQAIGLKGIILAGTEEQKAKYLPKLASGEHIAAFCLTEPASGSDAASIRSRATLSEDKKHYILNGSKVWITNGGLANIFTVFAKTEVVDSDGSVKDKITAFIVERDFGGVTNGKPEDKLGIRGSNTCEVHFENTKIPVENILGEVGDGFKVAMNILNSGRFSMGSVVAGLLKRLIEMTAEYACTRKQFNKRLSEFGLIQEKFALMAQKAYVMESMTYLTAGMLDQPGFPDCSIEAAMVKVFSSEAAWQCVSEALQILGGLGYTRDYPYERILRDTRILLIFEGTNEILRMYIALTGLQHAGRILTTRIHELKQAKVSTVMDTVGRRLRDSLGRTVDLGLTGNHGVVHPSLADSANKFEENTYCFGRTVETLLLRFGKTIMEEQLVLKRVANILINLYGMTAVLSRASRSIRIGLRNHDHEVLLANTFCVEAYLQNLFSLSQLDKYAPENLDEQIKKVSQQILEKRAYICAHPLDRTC
As to the kind of experiment: cryo-EM structure; ACAD9WT-ECSIT_(CTER) reconstituted (molar ratio 1:1.25) and purified by gel filtration; 25 mM HEPES, 300 mM NaCl, 1 mM TCEP, pH 7.5; C2 symmetry imposed. For orientation: SEC sorts molecules by how far they enter the pores of the column.

Another assay has as its target T4, ACAD9_(A184S) (human, UniProt Q9H845 38-621, A184S).
T4 construct: human ACAD9, residues 38-621, A184S (mimics the VLCAD gatekeeper loop); source: E. coli C43 (DE3), purified (HisTrap, dialysed in SEC buffer)
T4 sequence (looked up): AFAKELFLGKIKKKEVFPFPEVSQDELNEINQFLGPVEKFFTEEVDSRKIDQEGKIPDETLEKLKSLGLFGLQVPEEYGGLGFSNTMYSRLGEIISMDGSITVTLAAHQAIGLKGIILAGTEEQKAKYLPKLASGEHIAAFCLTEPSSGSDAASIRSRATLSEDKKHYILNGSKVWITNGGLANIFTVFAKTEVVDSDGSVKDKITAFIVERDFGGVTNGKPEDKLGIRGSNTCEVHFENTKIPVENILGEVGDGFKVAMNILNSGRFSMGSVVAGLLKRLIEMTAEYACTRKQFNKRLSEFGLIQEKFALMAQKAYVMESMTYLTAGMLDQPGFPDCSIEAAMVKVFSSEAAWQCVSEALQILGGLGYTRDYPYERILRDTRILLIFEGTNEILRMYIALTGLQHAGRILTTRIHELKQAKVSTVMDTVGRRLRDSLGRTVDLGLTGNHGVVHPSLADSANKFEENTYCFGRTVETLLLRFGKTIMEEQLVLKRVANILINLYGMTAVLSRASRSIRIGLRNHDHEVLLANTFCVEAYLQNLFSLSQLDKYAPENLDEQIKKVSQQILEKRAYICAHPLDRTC
As to the kind of experiment: dynamic light scattering; 278 K, protein at 1-2 mg/ml; complexes reconstituted at molar ratio 1:1.25.

A further assay has as its target T5, ACAD9_(SR194TS) (human, UniProt Q9H845 38-621, SR194TS).
T5 construct: human ACAD9, residues 38-621, double mutant SR194TS (mimics the VLCAD gatekeeper loop); source: E. coli C43 (DE3), purified (HisTrap, dialysed in SEC buffer)
T5 sequence (looked up): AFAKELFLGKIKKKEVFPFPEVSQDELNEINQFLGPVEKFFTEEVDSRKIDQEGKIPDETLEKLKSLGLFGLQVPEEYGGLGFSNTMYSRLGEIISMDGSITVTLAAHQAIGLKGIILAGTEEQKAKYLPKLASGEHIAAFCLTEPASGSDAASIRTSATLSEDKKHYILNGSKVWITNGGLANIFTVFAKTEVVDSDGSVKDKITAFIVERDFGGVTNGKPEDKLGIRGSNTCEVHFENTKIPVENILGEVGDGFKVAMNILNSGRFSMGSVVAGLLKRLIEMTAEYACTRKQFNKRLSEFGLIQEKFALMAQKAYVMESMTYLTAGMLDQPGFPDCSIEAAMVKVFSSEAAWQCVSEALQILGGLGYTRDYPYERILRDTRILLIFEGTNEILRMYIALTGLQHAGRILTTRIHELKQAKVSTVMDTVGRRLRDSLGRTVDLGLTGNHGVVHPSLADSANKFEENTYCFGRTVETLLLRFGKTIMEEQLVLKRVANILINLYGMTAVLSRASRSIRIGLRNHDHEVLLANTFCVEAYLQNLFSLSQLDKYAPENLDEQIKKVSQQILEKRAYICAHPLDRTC
The assay is described as above.

B1: ECSIT_(CTER) (residues 221-431) (domain or fragment, human, UniProt Q9BQ95 221-431, looked up)
chain: QDPVELAMFGLRHMEPDLSARVTIYQVPLPKDSTGAADPPQPHIVGIQSPDQQAALARHNPARPVFVEGPFSLWLRNKCVYYHILRADLLPPEEREVEETPEEWNLYYPMQLDLEYVRSGWDNYEFDINEVEEGPVFAMCMAGAHDQATMAKWIQGLQETNPTLAQIPVVFRLAGSTRELQTSSAGLEEPPLPEDHQEEDDNLQRQQQGQS
notes: human ECSIT, residues 221-431; E. coli codon-optimised synthetic gene; Only residues 320-334 are modelled in the cryo-EM map; Plasmid details are in Supplementary Data 1; also called C-terminal ECSIT; source: E. coli BL21 Star (DE3), purified (HisTrap, SEC)
As a reminder, the Kd is the equilibrium constant for the complex coming apart. Low readings indicate a tighter complex, high ones a looser complex. With B1, the dissociation constant Kd with ACAD9_(S191A) is 3.93 µM. The “fold decrease in fold change against ACAD9WT-ECSIT_(CTER)” value with ACAD9_(S191A) was about 3 fold. Moreover, the binding result with ACAD9_(A184S/SR194TS), with ACAD9_(A184S) and with ACAD9_(SR194TS) was “binds” throughout. Moreover, the “stoichiometry N” value in assay [1] was 1 ECSIT_(CTER) per ACAD9 protomer.
